This passage reports protein stability index results from the supplement of paper PMC9732359.

This series is described as follows: protein stability index of a GFP-peptide fusion (yeast GPS) (PSI 1-4); higher = more stable; sorted into four equal gates, so the index is relative within each strain. In outline:
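Mid-log yeast cultures in leucine-free medium, carrying a pooled plasmid library, were sorted into four equal gates by their GFP/Cherry fluorescence ratio. Each plasmid expressed Cherry along with GFP fused upstream of a tiled 17-residue yeast protein peptide. Plasmids recovered from each gate were PCR-amplified and Illumina-sequenced, with reads assigned to strains by barcodes. The protein stability index was obtained by summing each gate's read frequency weighted by its gate number.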

± gives the uncertainty stated by the source.

EWHSSLTLKEAELLVLK [PUP2] displayed a protein stability index (pdr5∆) of 2.47 ± 0.27 and a protein stability index (ubr1∆) of 1.63 ± 0.25.

Consider LESISHAGTAIGIMASD [PRE9], for which the protein stability index reads like this: (doa10∆) 1.45 ± 0.14; (pdr5∆) 2.15 ± 0.1; (san1∆) 2.06 ± 0.14; (ubr1∆) 1.5 ± 0.13.

CWLSNIDIQTQDLNQRF [RRI1]: the protein stability index was found to be 2.72 ± 0.11 (doa10∆), 3.23 ± 0.11 (pdr5∆), 3.24 ± 0.072 (san1∆) and 3.17 ± 0.079 (ubr1∆).

Where the note is “san1∆”, VRYGSSLRRQVKKLEIQ [RPL43A] gave a protein stability index of 2.55 ± 0.2.

Consider DWIRFVSTKTNEYRLAF [RPL22A], for which the protein stability index runs as follows: (doa10∆) 2.03 ± 0.039; (pdr5∆) 2.17 ± 0.045; (san1∆) 2.75 ± 0.064; (ubr1∆) 2.62 ± 0.042.

As to TTRNGFMEAQGAGIQII [FAS2], the protein stability index reads like this: (doa10∆) 2.81 ± 0.13; (pdr5∆) 2.31 ± 0.12; (ubr1∆) 3.26 ± 0.11.

As to KILNIIKCSQSSHLSDN [POP5], the protein stability index is, setting by setting: (doa10∆) 1.97 ± 0.05; (pdr5∆) 2.77 ± 0.069; (san1∆) 2.28 ± 0.065; (ubr1∆) 2.09 ± 0.053.

LVVLTDVVERLHKNFES [RGR1]: the protein stability index (doa10∆) was determined as 2.49 ± 0.093, the protein stability index (pdr5∆) stood at 2.74 ± 0.073, the protein stability index (san1∆) came to 2.61 ± 0.12 and the protein stability index (ubr1∆) was 2.96 ± 0.053.

Regarding GCKNGSFTLLNQLSQTN [NUT1], the protein stability index is 2.86 ± 0.12 (doa10∆), 3.05 ± 0.079 (pdr5∆), 2.97 ± 0.095 (san1∆) and 3.22 ± 0.11 (ubr1∆).

Take KRPYESSRLDAELKLAG [RPS9A]: the protein stability index runs as follows: (doa10∆) 3.24 ± 0.088; (pdr5∆) 3.05 ± 0.065; (san1∆) 2.81 ± 0.072; (ubr1∆) 2.96 ± 0.14.

As for SNNSTTNTFGSNSAGTS [YJL041W/NSP1], the protein stability index by setting is: (doa10∆) 3.08 ± 0.18; (pdr5∆) 3.2 ± 0.14; (ubr1∆) 3.05 ± 0.18.

As for SAKGPEIIPLQDYYIIG [MED6], the protein stability index (doa10∆) came to 3.18 ± 0.098, the protein stability index (pdr5∆) is 3.14 ± 0.054, the protein stability index (san1∆) stood at 3.14 ± 0.044 and the protein stability index (ubr1∆) was 3.31 ± 0.063.

In the case of VRPFGVSTLIAGFDPRD [PRE6], the protein stability index by setting is: (doa10∆) 1.5 ± 0.15; (pdr5∆) 1.7 ± 0.13; (san1∆) 1.75 ± 0.17; (ubr1∆) 1.41 ± 0.084.

LISGPRNQILVSITDAP [YMR129W/POM152] displayed a protein stability index (doa10∆) of 1.68 ± 0.092, a protein stability index (pdr5∆) of 1.81 ± 0.084, a protein stability index (san1∆) of 1.46 ± 0.1 and a protein stability index (ubr1∆) of 1.68 ± 0.079.

Regarding ETGNFSWASEGISKKTR [RPS8A], the protein stability index (doa10∆) is 3.15 ± 0.037, the protein stability index (pdr5∆) is 3.267 ± 0.028, the protein stability index (san1∆) came to 3.206 ± 0.028 and the protein stability index (ubr1∆) worked out at 3.228 ± 0.025.

Consider DPETTATQKESLEMVPK [RGR1], for which the protein stability index reads like this: (doa10∆) 3.12 ± 0.063; (pdr5∆) 3.07 ± 0.054; (san1∆) 2.94 ± 0.048; (ubr1∆) 3.11 ± 0.046.

With SVVLTLQAFGESESTTN [RPB3], the protein stability index by setting is: (doa10∆) 2.42 ± 0.12; (pdr5∆) 2.51 ± 0.088; (san1∆) 1.67 ± 0.11; (ubr1∆) 1.18 ± 0.052.

As for SFILSSLEDPQVRKKQI [YDL116W/NUP84], the protein stability index reads like this: (doa10∆) 1.94 ± 0.11; (pdr5∆) 2.09 ± 0.079; (san1∆) 2.44 ± 0.098; (ubr1∆) 3 ± 0.1.

As for DDYEDQDDDDYVDTATA [IRR1], the protein stability index is, setting by setting: (doa10∆) 3.14 ± 0.08; (pdr5∆) 3.47 ± 0.071; (san1∆) 2.93 ± 0.093; (ubr1∆) 3.22 ± 0.049.

Sequence ANVNASAMPAPYMPYYY [DSN1] yielded a protein stability index (doa10∆) of 2.76 ± 0.06, a protein stability index (pdr5∆) of 2.88 ± 0.077, a protein stability index (san1∆) of 2.79 ± 0.059 and a protein stability index (ubr1∆) of 2.65 ± 0.055.

As for VAPVSEIVNMVPSHVPQ [SIR2], the protein stability index by setting is: (doa10∆) 3.01 ± 0.09; (pdr5∆) 2.96 ± 0.069; (san1∆) 2.66 ± 0.06; (ubr1∆) 2.87 ± 0.046.

As to DTIATSATPNAAAFSQQ [GAL11], the protein stability index runs as follows: (doa10∆) 2.6 ± 0.056; (pdr5∆) 2.92 ± 0.064; (san1∆) 2.76 ± 0.055; (ubr1∆) 2.82 ± 0.039.

For the sequence RNHKHALHGTAKALAAA [RPL29], the protein stability index was 2.502 ± 0.019 (doa10∆), 2.685 ± 0.017 (pdr5∆), 2.523 ± 0.018 (san1∆) and 2.647 ± 0.014 (ubr1∆).

On to RADTDLAMNDDDFLSKK [SNF2], for which the protein stability index worked out at 3.35 ± 0.094 (doa10∆), 3.59 ± 0.079 (pdr5∆), 3.22 ± 0.076 (san1∆) and 3.42 ± 0.067 (ubr1∆).

Regarding AIAGNSTTNSDVSLLLQ [RGR1], the protein stability index by setting is: (doa10∆) 3.09 ± 0.13; (pdr5∆) 2.19 ± 0.082; (san1∆) 3.03 ± 0.056; (ubr1∆) 3.13 ± 0.071.

As for LPTDGGLTSRLQRQQRK [POP4], the protein stability index is 2.95 ± 0.16 (doa10∆), 3.3 ± 0.17 (pdr5∆), 3.13 ± 0.12 (san1∆) and 3.38 ± 0.12 (ubr1∆).

With EYIIAAIRKAPHNSKSL [RPN3], the protein stability index was determined as 2.79 ± 0.067 (doa10∆), 2.76 ± 0.061 (pdr5∆), 2.64 ± 0.045 (san1∆) and 2.68 ± 0.06 (ubr1∆).
